According to US6548639 (BIOSTAPRO, dated 2003):

Target: T1, MAL-Sbi (aa 33-436, SEQ ID NO:3) (Staphylococcus aureus strain 8325-4, UniProt A6QJQ7 33-436)
T1 construct: Expressed in E. coli from pMAL-c2 (BamHI-SalI insert), purified on amylose resin and then on IgG-Sepharose; also called MAL-fusion of protein Sbi; mature full length protein; not shown: its limits and the v
Assay: blot of the purified proteins overlaid with MAL-Sbi, detected with HRP-labelled chicken anti-Sbi

B1: bovine apolipoprotein H (other)
chain: GRTCPKPDELPFSTVVPLKRTYEPGEQIVFSCQPGYVSRGGIRRFTCPLTGLWPINTLKCMPRVCPFAGILENGTVRYTTFEYPNTISFSCHTGFYLKGASSAKCTEEGKWSPDLPVCAPITCPPPPIPKFASLSVYKPLAGNNSFYGSKAVFKCLPHHAMFGNDTVTCTEHGNWTQLPECREVRCPFPSRPDNGFVNHPANPVLYYKDTATFGCHETYSLDGPEEVECSKFGNWSAQPSCKASCKLSIKRATVIYEGERVAIQNKFKNGMLHGQKVSFFCKHKEKKCSYTEDAQCIDGTIEIPKCFKEHSSLAFWKTDASDVKPC
notes: mature; Serum protein; also called β2-glycoprotein I
Does B1 bind?
Result: binds
